Data on 1 substance can be found in US6495664.

The data set concerns GFP mutant K8 (-2M, -1G, M1R, S2R, K3R, G4A, E5S, E6I, L7I, S65A, K79R, E90N, N149K, V163A, I167T).

On to “mouse recombinant protein kinase A catalytic subunit (Calbiochem #539-487)”, for which the “apparent Km of phosphorylation, measured by 32P incorporation” value is “an apparent Km of 9 µM” and the “estimated Km of phosphorylation, based on quenching alone” value is on record as “an estimated Km of 7.7 µM”.
